The values that follow come from patent publication US20220137067A1.

In assay [1] the target is biotin beta-amyloid 1-42 peptide (Anaspec) (human). As to the kind of experiment: cell-based or functional assay. To be noted: scale: % Relative Potency.
In assay [2] the target is Recombinant human amyloid β 1-42 peptide (rPeptide) (human). Description: ELISA on plate-adsorbed recombinant human Aβ 1-42, anti-human IgG-HRP detection, parallel line analysis; mean of three assays. Conditions: scale: % Relative Potency.

B1: crenezumab (antibody, INN chains, looked up, V domains shown)
VH: EVQLVESGGGLVQPGGSLRLSCAASGFTFSSYGMSWVRQAPGKGLELVASINSNGGSTYYPDSVKGRFTISRDNAKNSLYLQMNSLRAEDTAVYYCASGDYWGQGTTVTVSS
VL: DIVMTQSPLSLPVTPGEPASISCRSSQSLVYSNGDTYLHWYLQKPGQSPQLLIYKVSNRFSGVPDRFSGSGSGTDFTLKISRVEAEDVGVYYCSQSTHVPWTFGQGTKVEIKR
On to B1, for which, in assay [1], the Phagocytosis Reporter Cell Potency is 99.

B2: crenezumab light stress sample (2.4 million lux hours) (antibody, INN chains, looked up, V domains shown)
VH: B1 VH
VL: B1 VL
modifications: light-stressed degraded sample
For B2, the Phagocytosis Reporter Cell Potency in assay [1] worked out at 86. The Aβ Binding Potency (% Relative Potency) in assay [2] is 84.
